Laboratory results taken from publication PMC3472097 (Structure (London, England : 1993), 2012).

target: protein phosphatase 1 alpha (PP1α), residues 7-330, recombinant (UniProt P62136 7-330); test: ITC
Sequence (P62136 7-330): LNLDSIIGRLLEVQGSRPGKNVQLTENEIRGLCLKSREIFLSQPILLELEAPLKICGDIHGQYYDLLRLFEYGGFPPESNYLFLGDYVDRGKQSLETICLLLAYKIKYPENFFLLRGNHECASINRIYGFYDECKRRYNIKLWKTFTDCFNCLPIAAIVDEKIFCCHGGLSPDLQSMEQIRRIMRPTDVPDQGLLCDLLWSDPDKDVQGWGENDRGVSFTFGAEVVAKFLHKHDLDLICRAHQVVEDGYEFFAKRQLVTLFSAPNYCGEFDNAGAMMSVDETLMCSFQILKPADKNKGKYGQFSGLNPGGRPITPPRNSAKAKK

Kd [nM]	Binder
73	NIPP1 PP1-binding domain, residues 144-225 (domain or fragment, UniProt Q12972 144-225, looked up) GGEDDELKGLLGLPEEETELDNLTEFNTAHNKRISTLTIEEGNLDIQRPKRKRKNSRVTFSEDDEIINPEDVDPSVGRFRNM
17.8	nuclear inhibitor of PP1 (NIPP1), residues 1-225 (FHA domain and PP1-binding domain) (domain or fragment, UniProt Q12972 1-225, looked up) MAAAANSGSSLPLFDCPTWAGKPPPGLHLDVVKGDKLIEKLIIDEKKYYLFGRNPDLCDFTIDHQSCSRVHAALVYHKHLKRVFLIDLNSTHGTFLGHIRLEPHKPQQIPIDSTVSFGASTRAYTLREKPQTLPSAVKGDEKMGGEDDELKGLLGLPEEETELDNLTEFNTAHNKRISTLTIEEGNLDIQRPKRKRKNSRVTFSEDDEIINPEDVDPSVGRFRNM
104	NIPP1 PP1-binding domain, residues 158-216 (domain or fragment, UniProt Q12972 158-216, looked up) EEETELDNLTEFNTAHNKRISTLTIEEGNLDIQRPKRKRKNSRVTFSEDDEIINPEDVD
